Laboratory results taken from US20150368299A1.

Target: Aβ(1-40) monomer in 0.1% NaOH (human)
Test: dot blot with densitometry; Aβ form dotted on nitrocellulose in serial dilution, antibody 0.2 µg/ml; higher value = weaker recognition

Sequence of Aβ(1-40) monomer in 0.1% NaOH (human) (peptide, as listed by the source): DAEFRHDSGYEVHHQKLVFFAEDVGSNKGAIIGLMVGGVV

B1: murine monoclonal anti-Aβ(20-42) globulomer antibody m4C9 (antibody, V domains shown)
VH: QVQLQQPGAELVKPGASVKLSCKAPGYTFTSYWMHWVKQRPGQGLEWIGRIDPKSGDTKYTEKFKSKATLTVDKPSSTAYMQLSSLTSEDSAVYYCTTMSKLSGTHAWFAYWGQGTLVTVSA
VL: DIKMTQSPSSMYASLGERVTITCKASQDINSYLTWFQQKPGKSPKTLIYRANRLVDGVPSRFSGSGSGQDYSLTISSLEYEDMGIYYCLQYDEFPLTFGAGTKLELK
  dot blot relation of recognition of Aβ(20-42) globulomer to recognition of this Aβ form: 110000
